We go through 1 substance from patent CN114028561A.

This assay has as its target 天然TSLP. Put plainly: cell-based or functional assay.

Tezepelumab (antibody) showed an IC50 of inhibition of natural TSLP-induced STAT5 phosphorylation in SW756-STAT5-Luciferase reporter cells of 1.45 ng/mL.
